This is an account of results in patent US20080113421A1, “Stabilizing proteins against denaturation and inactivation by charged detergents using chemical modifications, including modifications that increase net charge” (President and Fellows of Harvard College, priority 2006, published 2008).

For data set [1] the following is noted: from solutions of GuHCl; cited from earlier work.
Data set [2] is described as follows: Refolding after 1 week incubation at intermediate SDS concentrations (aggregation test). It is filed as physicochemical. The note with it: denatured in 10 mM SDS, incubated 1 week at intermediate SDS, diluted into 0.1 mM SDS. The method, then:
Aggregation was tested by renaturing the proteins from a denatured state at 10 mM SDS to 0.1 mM SDS, but through an incubation step at intermediate concentrations of SDS, instead of renaturing by rapid dilution from 10 mM SDS to 0.1 mM SDS directly (i.e., 10 mM SDS→2.5 mM SDS→0.1 mM SDS instead of 10 mM SDS→0.1 mM SDS). For incubation, concentrations of SDS were chosen in which aggregation was believed to occur on a similar or shorter time scale as refolding. The protein-SDS complex was diluted from 10 mM SDS to 2.5-0.7 mM SDS, the proteins were incubated for 1 week at those concentrations, and the samples further diluted to 0.1 mM SDS to initiate fast refolding.
The fluorescence signal from DNSA was normalized to that of refolded protein by rapid dilution from 10 to 0.1 mM SDS.

The nature of data set [3]: Refolding of SDS-denatured protein by dilution or removal of SDS, monitored by DNSA fluorescence. It is filed as physicochemical. The method, then:
Monitoring refolding of BCA and BCA-Ac18 was performed as follows. The proteins (10 micomolar) were denatured in 10 mM SDS for 24 h. […] Refolding was initiated by dilution of an aliquot of the denatured sample to a final concentration of protein of 200 nM, with varying concentrations of SDS in the buffer. Immediately prior to the measurement, an aliquot of renaturing protein was mixed with an equal aliquot of DNSA. The rate constants for renaturation were determined by fitting the data to FU=FUmax(1-e^−kt)+FUmin. The refolding experiments at 37° C. were performed similarly.
The kinetics of refolding were determined as follows. The rates of refolding of BCA and BCA-Ac18 from the fully denatured states (in 10 mM SDS) were measured by dilution of the solutions into buffers containing concentrations of SDS from 0.1 to 2 mM, using the fluorescence of DNSA as a marker for the appearance of the folded state. […] As in denaturation studies, an aliquot of solution of the protein and SDS was mixed with an equal aliquot of solution of DNSA with the same amount of SDS immediately prior to the measurement to eliminate the possibility of DNSA influencing refolding kinetics. The buffer also contained 100 micromolar ZnSO4 to ensure that the folded protein could incorporate a Zn(II) cofactor.
The raw data emphasize the decrease in the yield of folded protein with increasing concentration of SDS. […] The half-lives (t1/2) for renaturation were determined, where possible, by fitting the data to FU=FUmax(1-exp(−t/t1/2))+FUmin; the fits are shown (solid lines). The tables provide data for refolding in 0.1 and 0.4 mM SDS as well as for concentrations on the graphs for comparison. […] The error bars represent the difference between the average and the largest and smallest values measured from at least three replicate measurements.

With bovine carbonic anhydrase II [BCA], the “time constant of rate-limiting step in folding” value in data set [1] was approximately 10 min. The t1/2 for refolding in data set [2] amounted to 10.8 ± 0.6 min. In addition, in data set [3] (dilution from 10 mM SDS), the “concentration of SDS at which no refolded protein was observed” value was not below 800 µM. Besides, in data set [3] (time scales of a month), the “range of SDS concentrations in which protein neither refolds nor unfolds at an observable rate (window)” value was in the range of 0.8 to 2 mM. In addition, the “refolding rate (given as time) after denaturation with SDS” value in data set [3] (upon complete removal of the SDS) turned out to be 11 ± 1 min.
